Peptide text beside a SMILES is read from it. * marks the point of attachment. Cbz = O=C(OCc1ccccc1)*
T1: Fzd3 (Mus musculus, UniProt Q61086)
T1 construct: expressed in transfected cells; host or cells: HEK293T
T1 sequence (Q61086 23-666): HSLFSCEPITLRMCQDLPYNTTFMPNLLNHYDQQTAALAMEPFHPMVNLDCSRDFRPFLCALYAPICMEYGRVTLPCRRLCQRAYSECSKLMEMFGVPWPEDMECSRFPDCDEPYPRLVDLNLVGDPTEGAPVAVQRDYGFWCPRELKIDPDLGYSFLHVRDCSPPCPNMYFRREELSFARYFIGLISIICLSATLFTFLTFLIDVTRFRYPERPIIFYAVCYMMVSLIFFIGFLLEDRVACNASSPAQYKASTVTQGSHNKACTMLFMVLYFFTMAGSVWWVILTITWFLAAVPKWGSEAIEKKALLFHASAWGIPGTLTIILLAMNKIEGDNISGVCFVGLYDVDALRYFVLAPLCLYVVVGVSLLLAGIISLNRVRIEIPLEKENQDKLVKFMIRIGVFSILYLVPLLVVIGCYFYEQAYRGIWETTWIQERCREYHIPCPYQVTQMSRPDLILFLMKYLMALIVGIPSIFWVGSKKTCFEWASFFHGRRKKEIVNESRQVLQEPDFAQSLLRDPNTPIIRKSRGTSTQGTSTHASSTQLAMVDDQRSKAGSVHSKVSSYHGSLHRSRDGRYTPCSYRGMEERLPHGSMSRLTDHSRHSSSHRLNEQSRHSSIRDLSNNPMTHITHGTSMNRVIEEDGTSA

B1: sFPR2: a Wnt inhibitor, secreted Frizzled-related protein (protein, UniProt Q96HF1 25-295, looked up)
Secreted frizzled-related …: LFLFGQPDFSYKRSNCKPIPANLQLCHGIEYQNMRLPNLLGHETMKEVLEQAGAWIPLVMKQCHPDTKKFLCSLFAPVCLDDLDETIQPCHSLCVQVKDRCAPVMSAFGFPWPDMLECDRFPQDNDLCIPLASSDHLLPATEEAPKVCEACKNKNDDDNDIMETLCKNDFALKIKVKEITYINRDTKIILETKSKTIYKLNGVSERDLKKSVLWLKDSLQCTCEEMNDINAPYLVMGQKQGGELVITSVKRWQKGQREFKRISRSIRKLQC
B2: Wnt7a: recombinant Wnt7a (protein, UniProt O00755 32-349, looked up)
Protein Wnt-7a: LGASIICNKIPGLAPRQRAICQSRPDAIIVIGEGSQMGLDECQFQFRNGRWNCSALGERTVFGKELKVGSREAAFTYAIIAAGVAHAITAACTQGNLSDCGCDKEKQGQYHRDEGWKWGGCSADIRYGIGFAKVFVDAREIKQNARTLMNLHNNEAGRKILEENMKLECKCHGVSGSCTTKTCWTTLPQFRELGYVLKDKYNEAVHVEPVRASRNKRPTFLKIKKPLSYRKPMDTDLVYIEKSPNYCEEDPVTGSVGTQGRACNKTAPQASGCDLMCCGRGYNTHQYARVWQCNCKFHWCCYVKCNTCSERTEMYTCK
B3: Dvl1: Dvl1-EGFP expressed by transfection in HEK293T cells (protein)
chain: MAETKIIYHMDEEETPYLVKLPVAPERVTLADFKNVLSNRPVHAYKFFFKSMDQDFGVVKEEIFDDNAKLPCFNGRVVSWLVLAEGAHSDAGSQGTDSHTDLPPPLERTGGIGDSRPPSFHPNVASSRDGMDNETGTESMVSHRRERARRRNRDEAARTNGHPRGDRRRDLGLPPDSASTVLSSELESSSFIDSDEEDNTSRLSSSTEQSTSSRLVRKHKCRRRKQRLRQTDRASSFSSITDSTMSLNIITVTLNMERHHFLGISIVGQSNDRGDGGIYIGSIMKGGAVAADGRIEPGDMLLQVNDVNFENMSNDDAVRVLREIVSQTGPISLTVAKCWDPTPRSYFTIPRADPVRPIDPAAWLSHTAALTGALPRYGTSPCSSAITRTSSSSLTSSVPGAPQLEEAPLTVKSDMSAIVRVMQLPDSGLEIRDRMWLKITIANAVIGADVVDWLYTHVEGFKERREARKYASSMLKHGFLRHTVNKITFSEQCYYVFGDLCSNLASLNLNSGSSGASDQDTLAPLPHPSVPWPLGQGYPYQYPGPPPCFPPAYQDPGFSCGSGSAGSQQSEGSKSSGSTRSSHRTPGREERRATGAGGSGSESDHTVPSGSGSTGWWERPVSQLSRGSSPRSQASAVAPGLPPLHPLTKAYAVVGGPPGGPPVRELAAVPPELTGSRQSFQKAMGNPCEFFVDIM
modifications: left off: large carriers
notes: Dvl1-EGFP expressed by transfection in HEK293T cells

Assays:
Type in all cases: cell-based
[1] = tested on: β-catenin; experiment: β-catenin immunostaining in commissural axon growth cones; details: bath application; LiCl 2 mM
Excerpt: To understand how atypical PKC/Par pathway regulates axon guidance, we set out to determine the subcellular localization of aPKC, their substrates and downstream cellular effectors. […] Thus, our high-resolution confocal imaging detects a tendency of β-catenin being concentrated to one side of the growth cone (FIG. 9A). It is possible that there is low level of Wnt proteins in the culture (many neurons express Wnts). […] Therefore, it is also possible that intrinsic aPKC signaling can create chirality within the growth cone with out extrinsic signals. Such intrinsic polarity may then robustly regulate cellular morphology upon directional instructions from the environment such as a Wnt gradient. It is well known that GSK3β phosphorylates β-catenin, which then leads to proteosome-mediated degradation of β-catenin. And it is also known that GSK3β is phosphorylated and inhibited by PKCζ^(1,2). Therefore, inhibiting GSK3β or the proteosome activity generally should increase β-catenin level throughout the growth cone, canceling the asymmetry. […] We are now testing the hypothesis that Wnt proteins may locally activate PKCζ, which then inhibits GSK3β and locally stabilizes β-catenin, which is part of the asymmetric cellular mechanism leading to directional choice of a growth cone. We examine the localization of β-catenin in post-crossing commissural axon growth cones in the “post-crossing” assay and “open-book” assays.

[2] = tested on: cortical neurons; experiment: Cortical neuron death/survival assay under PKCζ inhibition (Tuj1, TUNEL, DAPI staining); details: for cell death induced by PKC inhibition: pretreatment before pseudosubstrate peptide
Excerpt: 1. PKCζ is required for survival of cortical neurons. E15.5 cortical neurons were dissociated and cultured for 2 days in the presence of various concentrations of a cell membrane penetrating myristoylated peptide derived in the pseudosubstrate domain of PKC (FIGS. 12A-12D). This peptide is a specific inhibitor of PKCζ.
2. Axon degeneration procedes cell body death when PKC is inhibited. We examined the timing of axon degeneration and cell body death. […] The death induced by PKCζ inhibition is much faster than Aβ peptide induced neuronal death (FIG. 12D), probably because the PKCζ is an essential kinase and peptide inhibition causes instant death, whereas Aβ has to bind to cell surface receptor and trigger a signaling cascade to cause death, which requires a longer time.
3. Wnts are trophic factors for cortical neurons. […] Nuclear shrinkage (pyknosis) is a hallmark of neuronal cell death. Using DAPI staining, we can visualize the cell nuclei (FIG. 14B). […] Initial cortical axons and dendrite form and grow but axons start to disintegrate at E18.5 (FIG. 14D, from Wang et al 2006),^(13) (FIGS. 12F, 12K). Based on our preliminary results, we propose that Wnts are not only axon guidance molecules but also regulate neuronal survival and axon degeneration acting via PKC (FIG. 15).
3. Survival and cell death assays for screening of monoclonal antibodies and small compounds. We use the same cell death/survival assay as described in FIGS. 12A-14D and use microtubule staining to analyze the integrity of microtubules, DAPI stain to measure the size of cell nuclei and TUNEL staining to assay cell death. Microtubule disassembly is quantified by staining intensity of Tuj1 and Tau antibodies. The size of cell nuclei is binned into difference sizes and the distribution of the nuclei size is used as quantification of pyknosis (FIG. 14C).

[3] = target: T1, Fzd3; experiment: Surface biotinylation and avidin immunoprecipitation of Fzd3 in HEK293T cells; details: HEK293T co-transfection, Vgl2 value in the presence of Dvl1
Excerpt: Dvl and Vgl have antagonistic functions on Fzd3 phosphorylation. […] We transfected Fzd3-mCherry in HEK293T cells then surface biotinylated and immunoprecipitated (IP) the surface molecules with strepavidin-conjugated beads to obtain membrane-localized proteins. […] We tested whether these two Fzd3 bands represent phosphorylation states of the Frizzled3 protein, one being phosphorylated/hyperphosphorylated Fzd3 (p-Fzd3) and the other non-phosphorylated Fzd3. […] Phosphorylation of Fzds has been shown previously in Xenopus oocytes
It has been proposed that Frizzled internalization is necessary for PCP signaling and phenotypes (Gagliardi et al., 2008; Yu et al., 2007). However, it has never been directly tested whether the cell surface level of Fzd, the Wnt-PCP receptor, changes upon Wnt addition. By using our surface biotinylation and immunoprecipitation with avidin, we show here, 15 minutes after Wnt addition, cell surface level of Fzd3-EGFP is diminished (FIG. 18C, Avidin IP, lane 3 anti-EGFP IB). […] This Fzd3 receptor oscillation from and to the membrane appeared to be a Wnt-Fzd specific effect because a non-Wnt binding receptor, such as the Insulin receptor stayed the same throughout the Wnt stimulation (FIG. 18C, Avidin IP, anti-Insulin Rβ IB). The Wnt-dependent Fzd3 oscillation is quantified in FIG. 18D (cross symboled line). […] In addition, PCP components appeared to effect this Wnt dependent oscillation of Fzd3 to and from the membrane. When Dvl1 is over expressed with Fzd3, we found within 30 minutes Fzd3 is unable to be internalized (FIG. 25B, lanes 5-7 and line). However, upon the introduction of Vangl2 into the transfection mix, Fzd3 oscillation is resumed (FIG. 25B, lanes 8-10 and circle symboled line).
Surface biotinylation and immunopreciptiation. 30 hours after transfection with the indicated constructs into HEK293T cells (FuGene, Roche), followed by 8-hour incubation in Optimem and subsequent bath application of recombinant Wnt5a (R&D Systems), surface proteins were subsequently labeled on ice with 1 mg/ml of Sulfo-NHS-LC-Biotin reagent (Pierce). The cell lysates were collect over a period of 30 minutes on ice in the following lysis buffer: 20 mM Tris pH7.6, 150 mM NaCl, 1% Triton, 0.1% SDS, 2.5 mM EDTA, 2.5 mM EGTA, protease Inhibitors (Roche). For the membrane immunoprecipitation, 600 ug of protein extracts were incubated overnight and retrieved by NeutrAvidin-coated Agarose beads (Pierce), the bound fraction was boiled and loaded on SDS-PAGE gel and analyzed by western blot analysis. To visualize the input amount 20 ug of total lysate was loaded, and for the Avidin IPs the total amount was loaded for western blot analysis. The following primary antibodies were used for the immunoblots: α-Frizzled3 (Wang et al., 2006), α-Vangl2 (Santa Cruz), α-mCherry/DsRed (Clontech), α-Jun (Cell Signaling), α-phospho-Jun (Cell Signaling), α-JNK (Cell Signaling), α-phospho-JNK (Cell Signaling), α-Flag (Sigma), α-GAPDH (Chemicon), α-Insulin Rβ (Santa Cruz).

Row | Molecule | β-catenin level and asymmetry in the growth cone [1] | cell death induced by PKC inhibition [2] | Fzd3 at the membrane relative to Fzd3-mCherry transfected alone [3] [fold] | also measured
1 | CC(C)C[C@@H](C=O)NC(=O)[C@H](CC(C)C)NC(=O)[C@H](CC(C)C)NC(=O)OCc1ccccc1 [MG132, reference compound] (Cbz-Leu-Leu-Leu-aldehyde) | elevated the level of β-catenin throughout the growth cone |  |  | 
2 | [Cl-].[Li+] [LiCl, reference compound] | elevated the level of β-catenin throughout the growth cone | block/reduce the cell death |  | pyknosis (nuclear shrinkage, DAPI staining, Image J) ([2]; neuronal death induced by PKCζ inhibition): partially blocked
3 | Vgl2: Vang Gogh Like protein 2 expressed by transfection in HEK293T cells |  |  | 2 | 
4 | B1 | eliminated asymmetric distribution of β-catenin |  |  | 
5 | B2 |  | block/reduce the cell death |  | axon degeneration / reduction of microtubule staining (Tuj1) ([2]; 5 um pseudosubstrate peptide): much less degeneration was seen; axons remaining judged by Tuj1 staining ([2]; 10 um pseudosubstrate peptide): more axons still remain
6 | B3 |  |  | 3 | Fzd3 at the membrane relative to Fzd3-mCherry transfected alone ([3]; listed as Dvl): approximately 3 fold
